Our source for the decrease in colony formation in soft agar (anchorage-independent growth), 1321N1 cells values is patent publication EP2322204A1.

In the assay the target is LRP1 receptor on human astrocytoma 1321N1 cells (human) (UniProt Q07954). Kind of assay: cell-based or functional assay.

Some results are limits rather than exact numbers.

Sequence of UniProt Q07954 (Q07954 20-4544): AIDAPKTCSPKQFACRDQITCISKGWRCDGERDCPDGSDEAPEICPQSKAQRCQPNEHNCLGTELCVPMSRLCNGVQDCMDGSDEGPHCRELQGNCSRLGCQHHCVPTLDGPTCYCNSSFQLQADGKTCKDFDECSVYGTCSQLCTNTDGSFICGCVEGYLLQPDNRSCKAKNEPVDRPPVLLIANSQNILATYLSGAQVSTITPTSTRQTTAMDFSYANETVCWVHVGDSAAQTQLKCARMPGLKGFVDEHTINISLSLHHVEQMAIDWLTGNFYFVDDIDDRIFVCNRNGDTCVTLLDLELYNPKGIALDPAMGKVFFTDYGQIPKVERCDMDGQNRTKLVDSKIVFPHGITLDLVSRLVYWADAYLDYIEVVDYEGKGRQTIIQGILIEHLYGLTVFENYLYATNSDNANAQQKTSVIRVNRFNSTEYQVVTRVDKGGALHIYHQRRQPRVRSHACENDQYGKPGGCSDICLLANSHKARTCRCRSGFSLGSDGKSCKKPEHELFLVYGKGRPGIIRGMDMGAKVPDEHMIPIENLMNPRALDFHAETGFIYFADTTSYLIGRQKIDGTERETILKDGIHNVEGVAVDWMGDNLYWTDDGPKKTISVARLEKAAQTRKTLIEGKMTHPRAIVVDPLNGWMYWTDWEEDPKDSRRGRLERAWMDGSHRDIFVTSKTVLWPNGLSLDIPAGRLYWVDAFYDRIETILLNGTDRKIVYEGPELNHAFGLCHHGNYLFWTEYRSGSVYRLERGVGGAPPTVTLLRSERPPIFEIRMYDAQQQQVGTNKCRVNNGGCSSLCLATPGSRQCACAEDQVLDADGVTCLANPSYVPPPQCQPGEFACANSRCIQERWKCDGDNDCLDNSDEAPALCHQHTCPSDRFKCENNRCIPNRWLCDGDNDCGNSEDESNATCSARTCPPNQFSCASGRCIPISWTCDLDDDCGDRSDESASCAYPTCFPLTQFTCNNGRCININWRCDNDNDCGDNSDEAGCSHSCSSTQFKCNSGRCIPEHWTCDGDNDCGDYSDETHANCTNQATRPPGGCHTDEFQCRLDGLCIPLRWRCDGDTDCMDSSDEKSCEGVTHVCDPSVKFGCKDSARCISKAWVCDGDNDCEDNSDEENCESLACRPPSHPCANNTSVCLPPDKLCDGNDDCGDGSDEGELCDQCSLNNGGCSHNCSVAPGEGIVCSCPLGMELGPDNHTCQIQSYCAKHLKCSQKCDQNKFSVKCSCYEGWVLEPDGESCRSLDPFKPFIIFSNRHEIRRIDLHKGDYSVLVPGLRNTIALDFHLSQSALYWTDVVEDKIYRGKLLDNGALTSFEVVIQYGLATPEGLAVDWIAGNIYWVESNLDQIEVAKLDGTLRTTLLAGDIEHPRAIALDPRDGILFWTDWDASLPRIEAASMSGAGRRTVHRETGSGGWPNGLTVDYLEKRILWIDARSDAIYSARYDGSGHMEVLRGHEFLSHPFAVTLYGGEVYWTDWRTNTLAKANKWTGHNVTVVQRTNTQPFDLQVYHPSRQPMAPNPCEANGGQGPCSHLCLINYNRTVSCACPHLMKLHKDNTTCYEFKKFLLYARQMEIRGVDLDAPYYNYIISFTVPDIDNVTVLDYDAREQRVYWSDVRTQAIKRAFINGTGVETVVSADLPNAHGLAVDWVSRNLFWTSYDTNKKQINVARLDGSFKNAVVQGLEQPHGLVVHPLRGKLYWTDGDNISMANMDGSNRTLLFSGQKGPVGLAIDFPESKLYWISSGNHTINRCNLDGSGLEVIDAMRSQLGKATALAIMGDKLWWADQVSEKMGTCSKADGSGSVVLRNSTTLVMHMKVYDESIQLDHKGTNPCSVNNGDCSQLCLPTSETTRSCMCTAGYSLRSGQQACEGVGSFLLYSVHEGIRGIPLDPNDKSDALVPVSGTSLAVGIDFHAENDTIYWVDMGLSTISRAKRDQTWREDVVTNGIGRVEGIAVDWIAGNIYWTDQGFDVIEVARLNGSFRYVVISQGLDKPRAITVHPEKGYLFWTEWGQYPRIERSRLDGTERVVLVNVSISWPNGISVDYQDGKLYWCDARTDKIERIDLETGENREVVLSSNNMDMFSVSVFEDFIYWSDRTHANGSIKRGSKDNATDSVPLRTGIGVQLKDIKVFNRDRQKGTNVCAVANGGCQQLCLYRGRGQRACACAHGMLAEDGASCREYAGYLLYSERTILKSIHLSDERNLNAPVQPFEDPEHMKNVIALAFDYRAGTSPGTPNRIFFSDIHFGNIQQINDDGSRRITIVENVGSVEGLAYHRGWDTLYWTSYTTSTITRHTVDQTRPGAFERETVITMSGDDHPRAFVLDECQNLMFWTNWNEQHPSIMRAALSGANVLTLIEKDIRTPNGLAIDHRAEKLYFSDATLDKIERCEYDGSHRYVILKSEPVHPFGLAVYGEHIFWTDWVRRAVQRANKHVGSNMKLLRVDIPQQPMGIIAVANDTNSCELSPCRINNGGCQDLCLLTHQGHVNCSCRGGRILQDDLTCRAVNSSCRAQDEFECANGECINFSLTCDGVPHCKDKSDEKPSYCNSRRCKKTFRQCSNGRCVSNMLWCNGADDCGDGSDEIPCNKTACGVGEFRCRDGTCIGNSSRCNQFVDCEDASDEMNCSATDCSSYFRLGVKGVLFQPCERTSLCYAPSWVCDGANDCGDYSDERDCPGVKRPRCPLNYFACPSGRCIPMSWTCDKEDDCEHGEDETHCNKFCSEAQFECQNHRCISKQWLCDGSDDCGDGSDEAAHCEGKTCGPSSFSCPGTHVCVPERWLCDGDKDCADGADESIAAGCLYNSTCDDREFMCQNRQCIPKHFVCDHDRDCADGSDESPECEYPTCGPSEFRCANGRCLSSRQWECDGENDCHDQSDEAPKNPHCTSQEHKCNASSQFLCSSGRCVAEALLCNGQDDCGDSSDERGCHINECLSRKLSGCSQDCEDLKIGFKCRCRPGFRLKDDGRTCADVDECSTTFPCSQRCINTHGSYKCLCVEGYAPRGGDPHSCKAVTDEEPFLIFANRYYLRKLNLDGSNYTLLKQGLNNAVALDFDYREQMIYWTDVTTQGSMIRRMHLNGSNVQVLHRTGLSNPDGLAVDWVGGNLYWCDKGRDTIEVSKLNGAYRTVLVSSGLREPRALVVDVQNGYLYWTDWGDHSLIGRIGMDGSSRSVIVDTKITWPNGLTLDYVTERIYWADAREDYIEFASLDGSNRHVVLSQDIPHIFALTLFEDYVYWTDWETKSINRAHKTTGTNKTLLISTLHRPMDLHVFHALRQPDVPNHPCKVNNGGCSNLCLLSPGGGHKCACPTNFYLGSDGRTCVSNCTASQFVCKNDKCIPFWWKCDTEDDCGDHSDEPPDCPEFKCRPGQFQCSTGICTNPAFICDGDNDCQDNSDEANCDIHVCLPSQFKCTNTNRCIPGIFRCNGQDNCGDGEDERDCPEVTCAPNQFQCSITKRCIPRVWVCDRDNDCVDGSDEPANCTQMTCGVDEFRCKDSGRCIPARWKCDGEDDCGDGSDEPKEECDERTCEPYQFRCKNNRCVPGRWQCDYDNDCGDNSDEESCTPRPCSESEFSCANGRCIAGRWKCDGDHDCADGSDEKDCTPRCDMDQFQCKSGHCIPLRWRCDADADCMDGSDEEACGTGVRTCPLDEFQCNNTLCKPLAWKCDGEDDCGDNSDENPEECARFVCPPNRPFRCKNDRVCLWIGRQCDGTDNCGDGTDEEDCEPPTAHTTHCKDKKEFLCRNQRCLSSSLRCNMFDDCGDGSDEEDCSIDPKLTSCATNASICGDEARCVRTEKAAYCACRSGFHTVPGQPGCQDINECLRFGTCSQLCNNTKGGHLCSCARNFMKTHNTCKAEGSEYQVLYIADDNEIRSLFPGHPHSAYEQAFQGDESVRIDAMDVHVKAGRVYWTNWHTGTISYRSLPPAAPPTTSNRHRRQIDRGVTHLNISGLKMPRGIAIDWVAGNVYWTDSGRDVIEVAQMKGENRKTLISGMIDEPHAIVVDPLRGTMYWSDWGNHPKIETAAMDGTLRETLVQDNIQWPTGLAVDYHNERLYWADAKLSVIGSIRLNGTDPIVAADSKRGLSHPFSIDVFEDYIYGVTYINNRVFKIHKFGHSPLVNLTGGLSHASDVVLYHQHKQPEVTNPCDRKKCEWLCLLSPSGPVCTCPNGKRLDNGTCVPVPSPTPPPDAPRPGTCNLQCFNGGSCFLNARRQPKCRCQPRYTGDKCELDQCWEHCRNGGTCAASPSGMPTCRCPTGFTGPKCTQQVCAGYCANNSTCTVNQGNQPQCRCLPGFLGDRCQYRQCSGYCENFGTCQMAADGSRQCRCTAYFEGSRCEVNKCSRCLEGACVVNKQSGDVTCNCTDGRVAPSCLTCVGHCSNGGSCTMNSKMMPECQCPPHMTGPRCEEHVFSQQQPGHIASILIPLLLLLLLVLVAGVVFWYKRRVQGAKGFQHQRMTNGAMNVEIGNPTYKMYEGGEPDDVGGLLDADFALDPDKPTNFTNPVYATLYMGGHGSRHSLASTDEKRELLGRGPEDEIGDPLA

Consider “methylamine-transformed A2M* (activated alpha-2-macroglobulin) (from UniProt P01023 24-1474) (ligand)”, for which the decrease in colony formation in soft agar (anchorage-independent growth), 1321N1 cells was > 50%.
